The values that follow come from US20200148787A1 (KYMAB, published 2020).

The target in one experiment is T1, Human factor IX (FIX) (human, UniProt P00740 47-461, 12 glutamic acid residues in the GLA domain post-translationally gamma-carboxylated (general description)).
T1 construct: mature; Bought reagent, used as SPR analyte
The experiment can be described thus: SPR Biacore 8K, IgG captured on anti-human IgG Fc, FIX analyte, 25 C, 1:1 fit. The method, then: An anti-human IgG Fc antibody was immobilised on CM4 chip (GE Healthcare catalog number BR100534) according to manufacturer's instructions. Amine coupling kit (BioRad) was used to activate the surface of the chip. […] The immobilisation run was performed at 25° C. using HBS-EP (10 mM HEPES pH 7.4, 150 mM NaCl, 3 mM EDTA, 0.05% Polysorbate 20 pH 7.6) as immobilisation running buffer.
Purified monospecific antibodies (referred to as ligand) from Example 13 were captured on the anti-human IgG Fc CM4 surface at approximately 2 μg/ml. The ligands were injected for 60 sec at 10 μl/min in all the active channels of all 8 flow channels. The run was performed at 25° C. using neutral pH (pH 7.4) HBS-P 1× (0.01 M HEPES pH 7.4, 0.15 M NaCl, 0.05% Polysorbate 20 pH 7.6)+CaCl₂) 2.5 mM as running buffer. Human factor IX (FIX) (Enzyme Research Laboratories cat n. HFIX 47064) was reconstituted at 1 mg/ml (MW ˜55 KDa) in the running buffer and used as analyte. […] Three injections of 10 mM glycine pH 1.5 for 60 sec at 10 μl/min were used for the regeneration phase.
The association and dissociation data of the interaction were fitted using biomolecular reaction model (1:1 Langmuir model). The values for association rate constant (kₒₙ), dissociation rate constant (koff) and dissociation constant (KD) were calculated from the binding data by BIAevaluation software.

For another experiment, the target named is Human Factor X (FX) (human, UniProt P00742 41-179; P00742 183-488, limits assumed). The experiment can be described thus: SPR Biacore 8K, IgG captured on anti-human IgG Fc, FX analyte, 25 C, 1:1 fit. Here is the method: Amine coupling kit (BioRad) was used to activate the surface of the chip. […] The immobilisation run was performed at 25° C. using HBS-EP (10 mM HEPES pH 7.4, 150 mM NaCl, 3 mM EDTA, 0.05% Polysorbate 20 pH 7.6) as immobilisation running buffer.
The run was performed at 25° C. using neutral pH (pH 7.4) HBS-P 1× (0.01 M HEPES pH 7.4, 0.15 M NaCl, 0.05% Polysorbate 20 pH 7.6)+CaCl₂) 2.5 mM as running buffer.

Human Factor X (FX), sequence (P00742 41-179 limits assumed, form in doubt, chain 1 of 2): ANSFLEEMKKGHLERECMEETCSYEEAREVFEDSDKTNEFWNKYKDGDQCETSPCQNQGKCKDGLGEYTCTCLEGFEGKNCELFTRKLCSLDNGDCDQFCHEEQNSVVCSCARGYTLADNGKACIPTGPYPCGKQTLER
Human Factor X (FX), sequence (P00742 183-488 limits assumed, form in doubt, chain 2 of 2): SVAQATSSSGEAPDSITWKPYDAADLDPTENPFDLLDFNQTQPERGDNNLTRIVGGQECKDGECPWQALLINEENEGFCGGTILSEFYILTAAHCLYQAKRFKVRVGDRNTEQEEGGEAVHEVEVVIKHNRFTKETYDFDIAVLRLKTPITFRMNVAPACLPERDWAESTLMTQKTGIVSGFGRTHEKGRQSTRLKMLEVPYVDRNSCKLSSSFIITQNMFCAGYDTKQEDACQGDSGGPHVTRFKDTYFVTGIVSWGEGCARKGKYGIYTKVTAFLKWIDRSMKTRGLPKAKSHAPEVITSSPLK

B1: N225H_IgG4PE + N128L_IgL (antibody, V domains shown)
VH: EVQLVESGGGFVQPGGSLRLSCAVSGFTFNSYWMSWVRQAPGKGLEWVANINQDGSEKFYVASVKGRFTISRDNAKKSVYLQMNSLRAEDTAVYYCAREGYSSSSYYGMDVWGQGTTVTVSS
VL: SYVLTQPPSVSVAPGETARITCGGDNIGRKSVYWYQQKSGQAPVLVIYYDSDRPSGIPERFSGSNSGNTATLTISRVEAGDEADYYCQVWDGSSDHWVFGGGTKLTVLG
notes: Monospecific IgG4PE with lambda light chain
In the experiment with Human factor IX (FIX), B1 gave a Kd of 428 nM, a koff of 0.031 s⁻¹ and a kon of 72300 M⁻¹ s⁻¹.

B2: T25H_IgG4PE + T25L_IgK (antibody, V domains shown)
VH: QVQLQESGPGLVKPSETLSLTCTVSGGSISSGIYYWSWIRQHPGKGLEWIGYINNSGNTYYNPSLKGRVNISVDTSKKQFSLKLSSVTDADTAVYYCARGGSGDYWGQGTLVTVSS
VL: EIVLTQSPATLSLSPGERATLSCRTSQSINNYLAWFQQKPGQAPRLLIYDASNRAPGIPARFSGSGSGTDFTLTISSLEPEDFVVYFCQQRNNWPPTFGQGTKVEIKR
notes: Monospecific IgG4PE, kappa; Kappa junction as noted for T14
As for B2, the Kd in the experiment with Human Factor X (FX) worked out at 3.57 nM.
